Drawing on US20050158309A1, this text covers cross-reactivity for 1 molecule.

[ ]: non-standard residue; d: D form. pGlu = O=C1CC[C@@H](C(=O)O)N1

Assay [1] has as its target aCII6 polyclonal antibody against GnRH-II. In words: RIA cross-reactivity with antibody aCII6 (relative to GnRH-II).
Assay [2] addresses KLII-2 antiserum against GnRH-II. In words: RIA cross-reactivity with antiserum KLII-2 (relative to GnRH-II).

B1: Salmon GnRH (sGnRH) (peptide)
peptide: [pGlu]HWSYGWLPG-NH2
SMILES: CC(C)C[C@H](NC(=O)[C@H](Cc1c[nH]c2ccccc12)NC(=O)CNC(=O)[C@H](Cc1ccc(O)cc1)NC(=O)[C@H](CO)NC(=O)[C@H](Cc1c[nH]c2ccccc12)NC(=O)[C@H](Cc1c[nH]cn1)NC(=O)[C@@H]1CCC(=O)N1)C(=O)N1CCC[C@H]1C(=O)NCC(N)=O
With B1, the cross-reactivity in assay [1] stood at 0.013%; in assay [2], 0.003%.
